What was measured:
[1] = biological target: deuterated green fluorescent protein [GFP: P42212]; test: small-angle neutron scattering (SANS); free protein in solution, about 5 mg/mL in Tris-buffer, h-GFP in D2O and d-GFP in H2O, 2-mm quartz cells, ambient conditions; Rg, P(r) and DAMMIF ab initio reconstruction
[2] = biological target: hydrogenated green fluorescent protein [GFP: P42212]; test: as above

| stoichiometry N [1] | stoichiometry N [2] | Substance |
| --- | --- | --- |
| 2 | – | deuterated green fluorescent protein (from UniProt P42212 2-238) (natural protein) |
| – | 2 | hydrogenated green fluorescent protein (from UniProt P42212 2-238) (natural protein) |
